Measured values as given in patent US20220280663A1, “[…] TARGETED […] ACTIVE SUBSTANCE OR LABEL […] SYSTEM” (CELLIS AG, priority 2016, published 2022).

What was measured:
Type in all cases: cell-based
CD45^+ leukocyte cell = experiment: Uptake and storage of iron binding proteins by CD45+ leukocyte cells
Description: (§1) Obtained cells are incubated in ferritin solution for a time and at the concentration sufficient to ensure proper ratio of ferritin/cell for their full load and also to ensure proper drug content to obtain therapeutic effect or contrast for proper imaging. The time and concentration may vary depending on the number of molecules encapsulated/adsorbed into the ferritin cage, status of cell activation, condition and number of their intended administration.
For example, to ensure proper load with ferritins, cells are incubated for 1-4 hours in ferritin solution 0.8 mg/ml in standard culture conditions. The frame of ferritin concentration may vary at least between 0.01 and 4 mg/ml as well as incubation time (5 min-6 hours or more). Adjusting time and concentration of ferritin load to cells, the influence of ferritin and treatment conditions on cell viability should be minded.
as §1, with “haemoglobin” for “ferritin”, “haemoglobin/cell” for “ferritin/cell”, “linked with” for “encapsulated/adsorbed into”, “haemoglobin molecule,” for “ferritin cage,”, “administration. […]” for “administration.”

EMT6 = experiment: Ferritin transfer from RAW264.7 macrophages to EMT6 cells under oxidative stress
Description: FIG. 27: Ferritin transfer was examined in cancer cells (EMT6) co-cultured with ferritin-loaded macrophages (RAW264.7) for 2 hrs. Three experimental conditions were used: “ctrl” (normal co-culture, no stress); “EMT6 OS” when EMT6 cells were subjected to the oxidative stress before co-culture and then co-cultured with macrophages at normoxic conditions and “co-culture OS” when both cell types were subjected to the oxidative stress before the co-culture. […] It can be related with higher load of ferritin due to oxidative stress and therefore more efficient transfer, or oxidative stress triggers macrophages to more efficiently deliver ferritins to cancer cells in order to reduce oxidative stress in neighboring cells.

cancer cells = experiment: Transfer of iron binding proteins from loaded leukocytes to co-cultured cancer cells
Description: However, in case of cancer cells the ratio of both cell types is crucial. The more macrophages the better and faster the transport is. The most efficient transfer to the cancer cells was observed when ratio of macrophages to cancer cells was 1:1 or more.
This transfer of compounds conjugated with anticancer drugs made the effect inducing apoptosis in cancer cells (FIG. 6, 13).
However, the ratio of both cell types is important. The more monocytes the better and faster the transport is. The most efficient transfer to the cancer cells was observed when ratio of monocytes to cancer cells was 1:1 or more.
However, the ratio of both cell types is crucial. The more granulocytes the better and faster the transport is. The most efficient transfer to the cancer cells was observed when ratio of granulocytes to cancer cells was 1:1 or more.
However, the ratio of both cell types is crucial. The more lymphocytes the better and faster the transport is. The most efficient transfer to the cancer cells was observed when ratio of lymphocytes to cancer cells was 1:1 or more.

B1: ferritins: recombinant mouse ferritin protein of SEQ ID NO: 4; mammalian ferritin H and/or L homopolymers (protein)
chain: MTTASPSQVRQNYHQDAEAAINRQINLELYASYVYLSMSCYFDRDDVALKNFAKYFLHQSHEEREHAEKLMKLQNQRGGRIFLQDIKKPDRDDWESGLNAMECALHLEKSVNQSLLELHKLATDKNDPHLCDFIETYYLSEQVKSIKELGDHVTNLRKMGAPEAGMAEYLFDKHTLGHGD
release of absorbed ferritin to the culture medium (CD45^+ leukocyte cell; after ferritin loading (FIG. 9)): do not release it to the culture medium | uptake of iron binding protein by cells (CD45^+ leukocyte cell; incubation 1-4 hours in protein solution (ferritin 0.8 mg/ml; haemoglobin, transferrin 0.1 mg/ml), standard culture conditions): very easily uptake | ferritin received by cancer cells from macrophages versus control (EMT6; EMT6 OS: EMT6 cells subjected to oxidative stress before 2 hrs co-culture): more ferritins than control cells | ferritin uptake by cancer cells from macrophages (EMT6; co-culture OS: both cell types subjected to oxidative stress before 2 hrs co-culture): even more efficient | specificity of transfer from macrophages: cancer cells versus non-cancer cells (cancer cells; FIG. 11): much more specific to cancer cells than to non-cancer cells | transport to cancer cells from granulocytes (cancer cells; loaded granulocytes (FIG. 15)): very easily transport | transport to cancer cells from lymphocytes (cancer cells; loaded lymphocytes (FIG. 16)): very easily transport | transport to cancer cells from macrophages (cancer cells; loaded macrophages, mouse mammary, colon, canine mammary, human breast, pancreatic, bladder cancer cells): very easily transport | transport to cancer cells from monocytes (cancer cells; loaded monocytes (FIG. 14)): very easily transport
